# Test results reported in patent US7732563B2, “Cloning, sequencing and expression of a gene encoding an eukaryotic amino acid racemase, and diagnostic, therapeutic, and vaccination applications of parasite and viral mitogens” (priority 1999, dated 2010).
# B1: rTcPA45: recombinant T. cruzi polyclonal activator 45, B-cell mitogen and proline racemase, codons 30-423 with C-terminal 6×His tag, from E. coli (protein)
# chain: RTGQEKLLFDQKYKIIKGEKKEKKKNQRANRREHQQKREIMRFKKSFTCIDMHTEGEAARIVTSGLPHIPGSNMAEKKAYLQENMDYLRRGIMLEPRGHDDMFGAFLFDPIEEGADLGMVFMDTGGYLNMCGHNSIAAVTAAVETGIVSVPAKATNVPVVLDTPAGLVRGTAHLQSGTESEVSNASIINVPSFLYQQDVVVVLPKPYGEVRVDIAFGGNFFAIVPAEQLGIDISVQNLSRLQEAGELLRTEINRSVKVQHPQLPHINTVDCVEIYGPPTNPEANYKNVVIFGNRQADRSPCGTGTSAKMATLYAKGQLRIGETFVYESILGSLFQGRVLGEERIPGVKVPVTKDAEEGMLVVTAEITGKAFIMGFNTMLFDPTDPFKNGFTLKQ
# modifications: left off: small tags and cut ends
# Target: T1, rTcPA45 proline racemase (Trypanosoma cruzi, UniProt Q4DA80)
# T1 construct: made in house; host or cells: E. coli (pET28b(+))
# Type: biochemical
# Method: To investigate the genomic organization and transcription of the Tc45 gene, Southern and Northern blot analyses were done. FIG. 4 depicts the results of characterization of rTcPA45 activities. FIG. 4, part a, is an 8% SDS-PAGE gel of rTcPA45 (Coomasie blue staining). Part b depicts the proliferative activity of total splenocytes (5×10^4 cells/well) in the presence of increasing concentrations of rTcPA45 (μg/ml). […] Reaction conditions were: 0.2 M Na-acetate/25 mM β-mercaptoethanol buffer, pH6, rTcPA45 (3 μg/ml), 30 min incubation at 37° C. in 500 μl. The reaction was stopped by incubating for 10 min at 80° C. […] Reactions were carried out for 30 min at 37° C. and stopped for 5 min at 80° C. All reagents and inhibitors were purchased from Sigma. The shift in optical rotation was measured in a Polarimeter 241 MC (Perkin Elmer).
# 3 μg of rTcPA45 was diluted in 500 μl of buffer (0.2M NaOAc, […] β-mercaptoethanol, pH6.0) containing different concentrations of the substrate (10-80 mM or L- or D-proline). (See FIG. 4c.) The reaction was incubated for 30-60 minutes at 37° C. in a water bath, followed by heat inactivation of the enzyme for 10 minutes at 80° C. Each sample is diluted to 1.5 ml with water and the mixture submitted to measurement of optical rotation using a polarimeter, at 365 nm. A sample without enzyme is used as a control. For optimal pH determination, buffer systems with NaOAc, phosphate, and Tris were used with pH ranging from 4.0-8.2. Curve of temperature was performed between 27° C. to 47° C.
# The percent of racemization of different concentrations of L-proline, D-proline, L-hydroxy-proline and D-hydroxy-proline substrates was calculated by incubating a 500-μl mixture of 3 μg TcPA45 and 10-80 mM substrate in 0.2 M sodium acetate and 25 mM β-mercaptoethanol, pH 6, for 30 min at 37° C. The reaction was stopped by incubation for 10 min at 80° C. Water (1 ml) was then added, and the optical rotation was measured in polarimeter 241 MC (Perkin Elmer, Montignyle Bretonneux, France) at a wavelength of 365 nm, in a cell with a path length of 10 cm. The percent inhibition of racemization of 80 mM L-proline was determined in the presence of different concentrations of several specific and nonspecific inhibitors ranging in concentration from 6 mM to 100 mM. The percent racemization of 80 mM L-proline as a function of pH was determined using 0.2 M sodium acetate, potassium phosphate and Tris-HCl buffers containing 25 mM β-mercaptoethanol; reactions were incubated for 30 min at 37° C. as described above. All reagents and inhibitors were purchased from Sigma.
# [1] = pH 6, 3 μg rTcPA45, 30 min at 37° C.
molecule,measurement,setting,value
B1,pH of maximal proline racemase activity,"80 mM L-proline, buffers pH 4.0-8.2",6
same,enzyme stability to heating,10 min heating at 80° C.,inactivated
same,racemisation of L- and D-proline substrates,[1],racemises
same,racemisation of L- or D-hydroxy-proline and other natural L-amino acids,[1],not
same,optimal temperature for enzymatic activity,tested between 27° C. and 47° C.,37 °C
